Test results taken from US20120177676A1 (COMPLIX, published 2012).

Biological target: T1, biotinylated C36 peptide bL4_C36 (residues 628 to 663 of HIV-1 HXB2 Env, gp41 HR2) (HIV-1 HXB2, N-terminal biotin attached through the Gly-Ser-Gly-Ser linker; C-terminal amide)
T1 construct: also called C36 derivative
T1 peptide: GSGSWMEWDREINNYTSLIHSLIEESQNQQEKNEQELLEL
Assay: ITC, bL4_C36 (50 microM, syringe) titrated into scAB013_N3 (2.46 microM, cell), 1:1 binding model

B1: scAB013_N3 Alphabody, N-terminally appended with a (His)6 tag (designed binder)
chain: HHHHHHAAIAAQQHLIALIQWGIAQLQARIYAMTGGSSGGMSIEEIQKQIAAIQKQIAAIQKQIYRMTGGSSGGMSIQAIQKQLQAIVKQIKAIQKQILAMEA
notes: Expressed in E. coli BL21(DE3) from pET16b and purified by IMAC and SEC; also called gp41 N-trimer-mimicking Alphabody
- Kd: 150 nM
- ΔH: -7.17 kcal/mol
